# Results reported in EP4786492A1.
# B1: Hab015VL4VH5a-hFc (scFv, part only; not given: VL-VH linker and human IgG1 Fc, V domains shown, not shown: another chain or arm of the molecule; a dimerising Fc or GST; small tags and cut ends)
# VL: NIVLTQSPATLSLSPGERATLSCKASENVGTYVSWFQQKPGQSPRLLIYGASNRYTGIPARFSGSGSGTDFTLTISSLEPEDFAVYYCGQFYSFPSTFGGGTKVEIK
# VH: EVQLVESGGGLVKPGGSLRLSCVASGITFSNFWMNWVRQAPGKGLEWVGQIRLKSDDYATHYAESVKGRFTISREDSKNTVYLQMNSLKTEDTAVYYCTTGYYFDYWGQGTTVTVSS
# B2: Hab015VL5VH5a-hFc (scFv, part only; not given: scFv linker and human IgG1 Fc, V domains shown, not shown: another chain or arm of the molecule; a dimerising Fc or GST; small tags and cut ends)
# VL: NIQMTQSPSSLSASVGDRVTITCKASENVGTYVSWYQQKPGKSPKLLIYGASNRYTGVPSRFSGSGSGTDFTLTISSLQPEDFATYYCGQFYSFPSTFGGGTKVEIK
# VH: B1 VH
# Target: human delta-like ligand 3 (DLL3) on SHP77 cells (human) (UniProt Q9NYJ7)
# Experiment: FACS on SHP77 cells
# Chain of human delta-like ligand 3 (DLL3) on SHP77 cells (human) (Q9NYJ7 27-618, stated change not applied): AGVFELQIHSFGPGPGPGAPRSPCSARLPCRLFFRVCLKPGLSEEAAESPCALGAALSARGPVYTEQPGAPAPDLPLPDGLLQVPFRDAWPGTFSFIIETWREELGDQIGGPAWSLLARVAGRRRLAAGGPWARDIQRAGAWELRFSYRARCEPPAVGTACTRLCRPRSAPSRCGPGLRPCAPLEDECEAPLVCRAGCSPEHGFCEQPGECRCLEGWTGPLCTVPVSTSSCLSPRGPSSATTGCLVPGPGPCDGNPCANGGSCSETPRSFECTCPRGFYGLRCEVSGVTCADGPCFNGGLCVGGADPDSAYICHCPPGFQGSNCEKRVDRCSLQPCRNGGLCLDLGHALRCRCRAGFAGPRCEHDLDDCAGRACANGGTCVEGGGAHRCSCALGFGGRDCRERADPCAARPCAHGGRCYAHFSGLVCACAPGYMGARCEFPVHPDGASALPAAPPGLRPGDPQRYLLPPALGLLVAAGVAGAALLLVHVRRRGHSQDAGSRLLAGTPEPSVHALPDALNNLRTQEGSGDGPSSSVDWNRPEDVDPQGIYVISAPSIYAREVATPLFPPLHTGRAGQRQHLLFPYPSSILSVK
Binder,MFI at 0.00128 nM [MFI],MFI at 0.0064 nM [MFI],MFI at 0.032 nM [MFI],MFI at 0.16 nM [MFI],MFI at 0.8 nM [MFI],MFI at 4 nM [MFI],MFI at 20 nM [MFI],MFI at 100 nM [MFI]
B1,100,117,179,368,709,812,997,1250
B2,106,122,189,405,666,785,876,1060

# Target: DLL3 endogenously expressed on NCI-H82 cells (UniProt Q9NYJ7)
# Experiment: FACS on NCI-H82 cells; antibody 4 nM
# Chain of DLL3 endogenously expressed on NCI-H82 cells (Q9NYJ7 27-618): as the sequence (Q9NYJ7 27-618, stated change not applied) above
row,Binder,MFI
1,B1,1030
2,B2,848

# Target: DLL3 endogenously expressed on NCI-H82 cells (UniProt Q9NYJ7)
# Experiment: FACS on NCI-H82 cells; antibody 20 nM
row,Binder,MFI
1,B1,1190
2,B2,929

# Target: DLL3 endogenously expressed on NCI-H82 cells (UniProt Q9NYJ7)
# Experiment: FACS on NCI-H82 cells; antibody 0.8 nM
row,Binder,MFI
1,B1,942
2,B2,779

# Target: DLL3 endogenously expressed on NCI-H82 cells (UniProt Q9NYJ7)
# Experiment: FACS on NCI-H82 cells; antibody 100 nM
row,Binder,MFI
1,B1,1510
2,B2,1110

# Target: DLL3 endogenously expressed on NCI-H82 cells (UniProt Q9NYJ7)
# Experiment: FACS on NCI-H82 cells; antibody 0.16 nM
row,Binder,MFI
1,B1,476
2,B2,473

# Target: human DLL3 protein expressed on CHO-K1 recombinant cells (human DLL3 extracellular segment fused to EpCAM transmembrane and intracellular regions) (human) (UniProt Q9NYJ7)
# Experiment: FACS, CHO-K1 hDLL3 cells, 4 nM antibody
# Chain of human DLL3 protein expressed on CHO-K1 recombinant cells (human DLL3 extracellular segment fused to EpCAM transmembrane and intracellular regions) (human) (Q9NYJ7 other isoform, or with tags, fused parts or gaps limits assumed): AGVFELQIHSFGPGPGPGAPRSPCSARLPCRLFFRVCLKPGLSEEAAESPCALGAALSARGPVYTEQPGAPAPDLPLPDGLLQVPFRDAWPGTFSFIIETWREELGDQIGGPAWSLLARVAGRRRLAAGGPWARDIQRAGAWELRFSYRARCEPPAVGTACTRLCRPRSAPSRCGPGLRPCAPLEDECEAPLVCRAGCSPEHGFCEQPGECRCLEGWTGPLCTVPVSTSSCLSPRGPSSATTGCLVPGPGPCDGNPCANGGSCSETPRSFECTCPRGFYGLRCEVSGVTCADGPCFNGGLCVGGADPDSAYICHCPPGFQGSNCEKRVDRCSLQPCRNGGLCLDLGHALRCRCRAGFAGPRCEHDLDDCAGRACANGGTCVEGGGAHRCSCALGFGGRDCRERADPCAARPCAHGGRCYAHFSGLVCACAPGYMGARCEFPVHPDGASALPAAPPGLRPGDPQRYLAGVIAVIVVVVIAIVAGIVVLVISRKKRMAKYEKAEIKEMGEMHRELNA
row,Binder,MFI [MFI]
1,B1,10900
2,B2,10700

# Target: mouse DLL3 on CHO-K1-mDLL3 cells (mouse) (UniProt O88516)
# Experiment: FACS, CHO-K1-mDLL3 cells, 4 nM antibody
# Chain of mouse DLL3 on CHO-K1-mDLL3 cells (mouse) (O88516 other isoform, or with tags, fused parts or gaps limits assumed): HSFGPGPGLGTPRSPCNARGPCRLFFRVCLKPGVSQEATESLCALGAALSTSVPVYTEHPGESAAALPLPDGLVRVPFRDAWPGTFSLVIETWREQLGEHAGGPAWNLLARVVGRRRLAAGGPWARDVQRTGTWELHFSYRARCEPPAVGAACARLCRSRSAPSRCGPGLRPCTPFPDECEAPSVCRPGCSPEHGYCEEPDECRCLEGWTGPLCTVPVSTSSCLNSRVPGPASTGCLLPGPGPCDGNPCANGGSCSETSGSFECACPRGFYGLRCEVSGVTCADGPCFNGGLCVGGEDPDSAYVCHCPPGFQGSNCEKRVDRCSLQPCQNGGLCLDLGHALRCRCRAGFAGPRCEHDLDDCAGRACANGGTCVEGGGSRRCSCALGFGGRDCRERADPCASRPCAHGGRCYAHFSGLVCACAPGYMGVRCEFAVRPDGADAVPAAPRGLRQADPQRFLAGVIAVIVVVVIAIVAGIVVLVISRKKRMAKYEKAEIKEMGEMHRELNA
row,Binder,MFI [MFI]
1,B1,1210
2,B2,1240

# Target: DLL3 endogenously expressed on NCI-H82 cells (UniProt Q9NYJ7)
# Experiment: FACS on NCI-H82 cells; antibody 0.032 nM
row,Binder,MFI
1,B1,212
2,B2,230

# Target: human DLL3 protein expressed on CHO-K1 recombinant cells (human DLL3 extracellular segment fused to EpCAM transmembrane and intracellular regions) (human) (UniProt Q9NYJ7)
# Experiment: FACS, CHO-K1 hDLL3 cells, 20 nM antibody
row,Binder,MFI [MFI]
1,B1,12000
2,B2,12000

# Target: mouse DLL3 on CHO-K1-mDLL3 cells (mouse) (UniProt O88516)
# Experiment: FACS, CHO-K1-mDLL3 cells, 20 nM antibody
row,Binder,MFI [MFI]
1,B1,1420
2,B2,1440

# Target: DLL3 endogenously expressed on NCI-H82 cells (UniProt Q9NYJ7)
# Experiment: FACS on NCI-H82 cells; antibody 0.0064 nM
row,Binder,MFI
1,B1,135
2,B2,139

# Target: human DLL3 protein expressed on CHO-K1 recombinant cells (human DLL3 extracellular segment fused to EpCAM transmembrane and intracellular regions) (human) (UniProt Q9NYJ7)
# Experiment: FACS, CHO-K1 hDLL3 cells, 0.8 nM antibody
row,Binder,MFI [MFI]
1,B1,4390
2,B2,4640

# Target: human DLL3 protein expressed on CHO-K1 recombinant cells (human DLL3 extracellular segment fused to EpCAM transmembrane and intracellular regions) (human) (UniProt Q9NYJ7)
# Experiment: FACS, CHO-K1 hDLL3 cells, 100 nM antibody
row,Binder,MFI [MFI]
1,B1,12400
2,B2,12000

# Target: mouse DLL3 on CHO-K1-mDLL3 cells (mouse) (UniProt O88516)
# Experiment: FACS, CHO-K1-mDLL3 cells, 0.8 nM antibody
row,Binder,MFI [MFI]
1,B1,875
2,B2,953

# Target: mouse DLL3 on CHO-K1-mDLL3 cells (mouse) (UniProt O88516)
# Experiment: FACS, CHO-K1-mDLL3 cells, 100 nM antibody
row,Binder,MFI [MFI]
1,B1,1530
2,B2,1580

# Target: DLL3 endogenously expressed on NCI-H82 cells (UniProt Q9NYJ7)
# Experiment: FACS on NCI-H82 cells; antibody 0.00128 nM
row,Binder,MFI
1,B1,118
2,B2,122

# Target: human DLL3 protein expressed on CHO-K1 recombinant cells (human DLL3 extracellular segment fused to EpCAM transmembrane and intracellular regions) (human) (UniProt Q9NYJ7)
# Experiment: FACS, CHO-K1 hDLL3 cells, 0.16 nM antibody
row,Binder,MFI [MFI]
1,B1,870
2,B2,1030

# Target: mouse DLL3 on CHO-K1-mDLL3 cells (mouse) (UniProt O88516)
# Experiment: FACS, CHO-K1-mDLL3 cells, 0.16 nM antibody
row,Binder,MFI [MFI]
1,B1,350
2,B2,424

# Target: human DLL3 protein expressed on CHO-K1 recombinant cells (human DLL3 extracellular segment fused to EpCAM transmembrane and intracellular regions) (human) (UniProt Q9NYJ7)
# Experiment: FACS, CHO-K1 hDLL3 cells, 0.032 nM antibody
row,Binder,MFI [MFI]
1,B1,283
2,B2,339

# Target: monkey DLL3 on CHO-K1-cyno DLL3 cells (cynomolgus monkey)
# Experiment: FACS, CHO-K1-cyno DLL3 cells, 4 nM antibody
# Chain of monkey DLL3 on CHO-K1-cyno DLL3 cells (cynomolgus monkey) (chain, as listed by the source limits assumed): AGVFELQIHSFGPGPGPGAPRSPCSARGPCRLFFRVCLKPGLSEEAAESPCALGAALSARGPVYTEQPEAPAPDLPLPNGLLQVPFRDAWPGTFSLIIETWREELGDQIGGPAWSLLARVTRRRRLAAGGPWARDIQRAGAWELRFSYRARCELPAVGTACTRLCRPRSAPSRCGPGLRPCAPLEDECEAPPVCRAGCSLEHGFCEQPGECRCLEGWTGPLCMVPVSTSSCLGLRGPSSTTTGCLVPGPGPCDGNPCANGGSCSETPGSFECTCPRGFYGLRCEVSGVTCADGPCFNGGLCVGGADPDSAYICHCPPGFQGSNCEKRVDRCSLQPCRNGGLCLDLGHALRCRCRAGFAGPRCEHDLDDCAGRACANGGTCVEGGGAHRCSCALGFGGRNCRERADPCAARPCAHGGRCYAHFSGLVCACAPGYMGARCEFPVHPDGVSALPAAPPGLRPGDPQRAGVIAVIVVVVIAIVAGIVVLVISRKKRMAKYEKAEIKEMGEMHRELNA
row,Binder,MFI [MFI]
1,B1,6520
2,B2,6610

# Target: mouse DLL3 on CHO-K1-mDLL3 cells (mouse) (UniProt O88516)
# Experiment: FACS, CHO-K1-mDLL3 cells, 0.032 nM antibody
row,Binder,MFI [MFI]
1,B1,170
2,B2,199

# Target: human DLL3 protein expressed on CHO-K1 recombinant cells (human DLL3 extracellular segment fused to EpCAM transmembrane and intracellular regions) (human) (UniProt Q9NYJ7)
# Experiment: FACS, CHO-K1 hDLL3 cells, 0.0064 nM antibody
row,Binder,MFI [MFI]
1,B1,150
2,B2,166

# Target: monkey DLL3 on CHO-K1-cyno DLL3 cells (cynomolgus monkey)
# Experiment: FACS, CHO-K1-cyno DLL3 cells, 20 nM antibody
row,Binder,MFI [MFI]
1,B1,7180
2,B2,7090

# Target: mouse DLL3 on CHO-K1-mDLL3 cells (mouse) (UniProt O88516)
# Experiment: FACS, CHO-K1-mDLL3 cells, 0.0064 nM antibody
row,Binder,MFI [MFI]
1,B1,126
2,B2,139

# Target: human DLL3 protein expressed on CHO-K1 recombinant cells (human DLL3 extracellular segment fused to EpCAM transmembrane and intracellular regions) (human) (UniProt Q9NYJ7)
# Experiment: FACS, CHO-K1 hDLL3 cells, 0.00128 nM antibody
row,Binder,MFI [MFI]
1,B1,122
2,B2,134

# Target: monkey DLL3 on CHO-K1-cyno DLL3 cells (cynomolgus monkey)
# Experiment: FACS, CHO-K1-cyno DLL3 cells, 0.8 nM antibody
row,Binder,MFI [MFI]
1,B1,4480
2,B2,4590

# Target: monkey DLL3 on CHO-K1-cyno DLL3 cells (cynomolgus monkey)
# Experiment: FACS, CHO-K1-cyno DLL3 cells, 100 nM antibody
row,Binder,MFI [MFI]
1,B1,7610
2,B2,7380

# Target: mouse DLL3 on CHO-K1-mDLL3 cells (mouse) (UniProt O88516)
# Experiment: FACS, CHO-K1-mDLL3 cells, 0.00128 nM antibody
row,Binder,MFI [MFI]
1,B1,117
2,B2,122

# Target: monkey DLL3 on CHO-K1-cyno DLL3 cells (cynomolgus monkey)
# Experiment: FACS, CHO-K1-cyno DLL3 cells, 0.16 nM antibody
row,Binder,MFI [MFI]
1,B1,1180
2,B2,1330

# Target: monkey DLL3 on CHO-K1-cyno DLL3 cells (cynomolgus monkey)
# Experiment: FACS, CHO-K1-cyno DLL3 cells, 0.032 nM antibody
row,Binder,MFI [MFI]
1,B1,377
2,B2,428

# Target: monkey DLL3 on CHO-K1-cyno DLL3 cells (cynomolgus monkey)
# Experiment: FACS, CHO-K1-cyno DLL3 cells, 0.0064 nM antibody
row,Binder,MFI [MFI]
1,B1,164
2,B2,194

# Target: monkey DLL3 on CHO-K1-cyno DLL3 cells (cynomolgus monkey)
# Experiment: FACS, CHO-K1-cyno DLL3 cells, 0.00128 nM antibody
row,Binder,MFI [MFI]
1,B1,122
2,B2,142

# Target: human DLL1 protein (Acro, Cat. No. DL1-H52H8) (human) (UniProt O00548)
# Experiment: ELISA, coated hDLL1; maximum over 0.1, 1, 10, 100 nM antibody
# Chain of human DLL1 protein (Acro, Cat. No. DL1-H52H8) (human) (O00548 18-540 limits assumed): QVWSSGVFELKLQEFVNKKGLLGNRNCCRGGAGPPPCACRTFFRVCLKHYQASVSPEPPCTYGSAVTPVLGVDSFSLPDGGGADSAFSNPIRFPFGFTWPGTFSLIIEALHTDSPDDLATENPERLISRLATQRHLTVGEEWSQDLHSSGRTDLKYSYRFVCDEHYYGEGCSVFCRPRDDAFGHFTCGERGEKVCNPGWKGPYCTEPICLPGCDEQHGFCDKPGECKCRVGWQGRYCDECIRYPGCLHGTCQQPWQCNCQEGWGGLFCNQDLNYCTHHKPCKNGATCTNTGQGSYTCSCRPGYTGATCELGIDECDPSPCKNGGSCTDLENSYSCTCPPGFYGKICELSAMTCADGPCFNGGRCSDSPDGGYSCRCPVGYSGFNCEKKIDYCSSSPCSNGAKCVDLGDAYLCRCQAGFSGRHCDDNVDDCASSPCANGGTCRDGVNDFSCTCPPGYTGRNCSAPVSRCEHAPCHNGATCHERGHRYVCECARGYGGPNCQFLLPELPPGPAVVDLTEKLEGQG
row,Binder,Emax of OD450 nm binding value [OD450 nm]
1,B1,0.42
2,B2,0.47

# Target: human DLL4 protein (Acro, Cat. No. DL4-H5227) (human) (UniProt Q9NR61)
# Experiment: ELISA, coated hDLL4; maximum over 0.1, 1, 10, 100 nM antibody
# Chain of human DLL4 protein (Acro, Cat. No. DL4-H5227) (human) (Q9NR61 27-524 limits assumed): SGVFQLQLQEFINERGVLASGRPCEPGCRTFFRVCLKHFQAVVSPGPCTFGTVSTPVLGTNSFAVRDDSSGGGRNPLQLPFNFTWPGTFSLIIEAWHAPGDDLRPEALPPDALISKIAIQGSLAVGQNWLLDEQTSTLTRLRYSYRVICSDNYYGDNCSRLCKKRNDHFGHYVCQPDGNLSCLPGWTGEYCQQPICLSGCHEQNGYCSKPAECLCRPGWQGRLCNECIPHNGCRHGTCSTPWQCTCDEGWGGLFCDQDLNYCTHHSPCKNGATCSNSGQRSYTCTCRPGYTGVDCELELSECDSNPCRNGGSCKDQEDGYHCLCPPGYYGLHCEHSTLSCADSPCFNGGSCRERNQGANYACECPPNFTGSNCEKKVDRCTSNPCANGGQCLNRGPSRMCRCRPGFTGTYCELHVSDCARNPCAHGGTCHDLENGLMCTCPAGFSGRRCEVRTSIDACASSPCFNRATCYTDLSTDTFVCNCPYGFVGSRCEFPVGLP
row,Binder,Emax of OD450 nm binding value [OD450 nm]
1,B1,0.71
2,B2,0.64
